Target: EBOV sGP (secreted form of GP) (Zaire ebolavirus, Mayinga-76 …, UniProt P60170)
Test: ELISA
Conditions: both partners purified

Chain of EBOV sGP (secreted form of GP) (P60170 33-305): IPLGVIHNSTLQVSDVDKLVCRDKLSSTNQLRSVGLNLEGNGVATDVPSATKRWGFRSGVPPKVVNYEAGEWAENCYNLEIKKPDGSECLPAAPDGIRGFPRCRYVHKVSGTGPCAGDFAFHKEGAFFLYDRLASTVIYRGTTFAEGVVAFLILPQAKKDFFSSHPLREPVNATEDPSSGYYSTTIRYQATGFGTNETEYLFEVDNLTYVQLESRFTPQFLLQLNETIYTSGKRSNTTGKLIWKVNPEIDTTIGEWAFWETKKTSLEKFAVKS

Binder	binding result
Nanosota-EB1-His (VHH) VHH: QVQLQESGGGQVQAGGSLRLSCAASGSTSVIYAMGWYRQAPGKQRELVAAITRGVGSTNYADSVKGRFTISRDNAKNTMYLQMNSLKPEDTAVYYCNARLLVAPPPYEYDYWGQGTQVTVSS	binds
Nanosota-EB2-His (VHH) VHH: QVQLQESGGGVVQAGGSLRLSCSASGRTFSNYAMAWFRQAPGKDREFAAGINYNGERTAYADSVKGRFTISRDDAKNTVYLQMNSLKPEDTAVYSCAARPWSIANLAYTYDSWGQGTQVTVSS	no binding
